From patent publication US20240238459

Legend:
[1] = system: T1, substrate sequence FVQWFSKFLGK (SEQ ID NO:3)
T1 sequence: FVQWFSKFLGK

^64Cu-GRIP B = system: T2, ^64Cu-GRIP B
T2 sequence: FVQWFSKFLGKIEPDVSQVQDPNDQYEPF

[2] = system: T3, granzyme B-cleavable restricted interaction peptide (GRIP B), full length
T3 sequence: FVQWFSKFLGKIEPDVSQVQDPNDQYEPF

[3] = system: T4, quenched fluorogenic peptide NH2-K(MCA)IEPDVSQVK(DNP)-COOH
T4 sequence: KIEPDVSQVK

Substance | protease specificity (cleavage activity; enzyme 5 nM, substrate 60 µM) [1] | proteolytic conversion on radio-HPLC (^64Cu-GRIP B) | proteolytic cleavage [2] | kcat/Km [3]
MMP9 | the substrate sequence is highly specific for granzyme B compared to the other proteases tested | – | – | –
caspase 3 | the substrate sequence is highly specific for granzyme B compared to the other proteases tested | – | – | –
caspase 8 | the substrate sequence is highly specific for granzyme B compared to the other proteases tested | – | – | –
recombinant human granzyme B | the substrate sequence is highly specific for granzyme B compared to the other proteases tested | showed conversion within 30 minutes to one radiolabeled product | full length GRIP B was efficiently cleaved by recombinant human GZMB | ˜8000 M^-1 sec^-1
thrombin | the substrate sequence is highly specific for granzyme B compared to the other proteases tested | – | – | –
